The source of these data is patent publication US12723105 (BEIJING STARMAB BIOMED TECHNOLOGY, dated 2026).

Residue numbers refer to the chain shown, from its start.

T1: human LAG3 (human, UniProt P18627 29-450, limits assumed)
T1 construct: also called hLAG3
T1 sequence: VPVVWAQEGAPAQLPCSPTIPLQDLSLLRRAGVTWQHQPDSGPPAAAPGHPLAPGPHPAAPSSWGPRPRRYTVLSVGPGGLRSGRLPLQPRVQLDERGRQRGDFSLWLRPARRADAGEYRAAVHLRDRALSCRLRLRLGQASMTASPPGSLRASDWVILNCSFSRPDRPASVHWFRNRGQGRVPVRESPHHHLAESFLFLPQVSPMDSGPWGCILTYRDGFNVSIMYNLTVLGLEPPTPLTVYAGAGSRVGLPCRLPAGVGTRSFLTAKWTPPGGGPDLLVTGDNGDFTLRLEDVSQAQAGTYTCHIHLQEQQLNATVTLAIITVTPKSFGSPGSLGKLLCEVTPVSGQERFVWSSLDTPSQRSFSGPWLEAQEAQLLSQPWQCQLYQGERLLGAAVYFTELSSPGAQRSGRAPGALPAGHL

B1: hLG9 (VHH)
VHH: EVQLLESGGGLVQPGGSLRLSCAASGSTIDDYPMSWFRQAPGKGREGVAAIDDSDESTYYADSVKGRFTISRDNSKNTLYLQMNSLRAEDTAVYYCARGAIFMIDGVDVFLTYYYDSWGQGTLVTVSS
notes: also called LG9H; not shown: C-terminal His-tag
B2: LG9 (VHH)
VHH: EVQLVESGGGLVQPGGSLRLSCAASGSTIDDYPIGWFRQAPGKEREGVSCIDDSDESTYYADSVKGRFTISRDNAKNTVYLQMNSLKPEDTAVYYCARGAIFMIDGVDVFLTYYYDSWGQGTQVTVSS
notes: not shown: C-terminal His-tag
B3: LG99 (VHH)
VHH: B1 VHH with I101L, Y115F, D116E, S117F
notes: not shown: C-terminal His-tag
B4: LG6 (VHH)
VHH: EVQLVESGGGLVQAGGSLRLSCAVSGSIFSISTMGWYRQAPGKQRELVASITARGSADYADSVKGRFTISRDNAKNTVYLQMSSLKPEDTAVYYCNTDTRSTLYHYSWGQGTQVTVSS
notes: not shown: C-terminal His-tag
B5: LG19 (VHH)
VHH: QVQLVESGGGLVQPGGSLRLSCAASGFTLDYYAIGWFRQAPGKEREGVSCISSSDGSTYYADSVKGRFTISRDNAKNTVYLQMNSLKPEDTAVYYCAADRRGSCRQYDYWGQGTQVTVSS
notes: not shown: C-terminal His-tag
B6: LG22 (VHH)
VHH: EVQLVESGGGLVQPGGSLRLSCAASGFTLDYYAIGWFRQAPGKEREGVSCIINSDGSTYYADSVKGRFTISRDNAKNTVYLQMNSLKPEDTAVYYCATDRYSDCRGPYDYWGQGTQVTVSS
notes: not shown: C-terminal His-tag
B7: LG-D8 (VHH)
VHH: QVQLVESGGGLVQPGGSLRLSCAASGFTFGKYAMSWVRQVPDKGLEWVSSISSSGRDTSYADSAKGRFTIFRNNAANTVYLQMDNLKLEDTGVYYCVKCLEVWATREYDGWGQGTQVTVSS
notes: not shown: C-terminal His-tag
B8: LG2 (VHH)
VHH: QVQLVESGGGLVQPGGSLRLSCAASGTIFSINAMGWYRQAPGKQRELVAIVTFGGSTNYADSVKGRFTISRDNAKNTVYLQMNSLKPEDTAVYYCSARNVQSPVQYHLAVWGQGTLVTVSS
notes: not shown: C-terminal His-tag
B9: A09-10 (VHH)
VHH: QVQLVESGGGLVQAGGSLRLSCAASGGGRTFSNYALGWFRQAPGKEREFVAAISRSGGNINYADSAKGRFTISRDNFKNTTYLQMSSLKPEDTAVYYCAAHYLLLPSYISTSTNMYNYWGQGTQVTVSS
notes: not shown: C-terminal His-tag
B10: hA09-10 (VHH)
VHH: B9 VHH with Q1E, A14P, A66V, F77A, T81V, K89R, P90A
notes: also called humanized A09-10; not shown: C-terminal His-tag
B11: A09-08 (VHH)
VHH: QVQLVESGGGLVQAGGSLRLSCAASGYGVNSYALGWFRQAPGKEREFVAAISRSGGNINYADSAKGRFTISRDNFKNTTYLQMSSLKPEDTAVYYCAAHYLLLPSYISTSTNMYNYWGQGTQVTVSS
notes: not shown: C-terminal His-tag
B12: A09-61 (VHH)
VHH: B11 VHH with T109F, S110A, T111S, N112K
notes: not shown: C-terminal His-tag
B13: A09-31 (VHH)
VHH: B11 VHH with S108A, S110A, T111I, N112K
notes: not shown: C-terminal His-tag
B14: A09-006 (VHH)
VHH: B11 VHH with Y27I, G28R, V29F, N30F, S31G, Y32S
notes: also called A09-06; not shown: C-terminal His-tag
B15: 33-8 (VHH)
VHH: EVQLMESGGGLVQAGGSLRLSCAASGRTVSTYVMGWFRQAPGKEREFVAEINRIGDTLYNRTSVKGRFTISRDNAKNTVYLQMNSLEPEDTAVYSCAARVIGTSTYNYWGQGTQVTVSS
notes: not shown: C-terminal His-tag
B16: 33-4 (VHH)
VHH: QVQLVESGGGSVQPGGSLRLSCEASGSIFSIAHMGWYRQAPGKQRELVAVISSGGRTNYVDSVKGRFTISRDNAKNTVYLQMNSLKAEDTAVYFCNVAVVGGPRFDYWGQGTQVTVSS
notes: not shown: C-terminal His-tag
B17: 33-1 (VHH)
VHH: QVQLVESGGGLVQTGGSLRLSCAASGGTFTNYAMGWFREAPGKEREFVAGINNNGDTLYNTNSVKGRFTISRDNAKNTVYLHMNSLKLEDTAVYYCAANLKGASWYSANYDYWGQGTQVTVSS
notes: not shown: C-terminal His-tag
B18: 33-13 (VHH)
VHH: QVQLVESGGGLVQAGGSLRLSCAASGSISSINSMNWYRQAPGKQREKVAGINSSGDTNYVDSVKGRFTISRDNAERTTYLQMNNLKPEDTGLYYCNADPRPWPNDVAFGSWGQGTRVTVSS
notes: not shown: C-terminal His-tag
B19: 33-2 (VHH)
VHH: QVQLVESGGGLVQAGGSLRLSCTASANILRTAPMAWYRQAPGKQREFVALITADGTTDYQESVKGRFTTSRDNAKNTVYLQMNSLQSEDTARYFCKVYSYWGQGTQVTVSS
notes: not shown: C-terminal His-tag
B20: 33-14 (VHH)
VHH: QVQLVESGGGLVQAGDSLKLSCAASGRTSLILAMAWWRQAPGKEREFAGRIWWNNDMTRYSDSVKGRFTISKDNTKNMVYLRMDNLGPEDTAVYYCEADLIGGSRGWGQGTQVTVSS
notes: not shown: C-terminal His-tag

The target of the first experiment is T1, human LAG3. Kind of experiment: BLI (Octet) as in Examples 1-4, His-tagged VHH, human LAG3.
Broadly, the Kd is the equilibrium constant for the complex coming apart. High values mean a looser complex, low ones a tighter complex. The term koff denotes the first-order rate constant of dissociation. By kon is commonly meant the rate constant with which the complex forms. Lower therefore signals slower complex formation. B1 gave a Kd of 2.71 nM, a koff of 0.000298 s⁻¹ and a kon of 110000 M⁻¹ s⁻¹.
B2: the Kd turned out to be 1.77 nM, the koff stood at 0.00011 s⁻¹ and the kon stood at 62100 M⁻¹ s⁻¹.
B3 registered a Kd of 0.0792 nM, a koff of 2.91e-05 s⁻¹ and a kon of 367000 M⁻¹ s⁻¹.
For B4 the same measures were 19 nM, 0.000522 s⁻¹ and 27500 M⁻¹ s⁻¹.
For B5 the same measures were 0.114 nM, 1.09e-05 s⁻¹ and 87000 M⁻¹ s⁻¹.
As for B6, the Kd is 0.267 nM, the koff was 1.14e-05 s⁻¹ and the kon came out at 42700 M⁻¹ s⁻¹.
Turning to B7, binding was characterised by a dissociation constant (Kd) of 2.98 nM, the koff came to 9.82e-05 s⁻¹ and the kon came out at 33000 M⁻¹ s⁻¹.
For B8 the same measures were 630 nM, 0.021 s⁻¹ and 33300 M⁻¹ s⁻¹.

The next experiment deals with T2, human CD47 (R & D systems) (human, UniProt Q08722 19-139).
T2 construct: The Octet analyte was bought (R&D Systems); also called Human CD47 antigen; hCD47
The experiment can be described thus: BLI (Octet), His-tagged VHH on anti-penta-His tips, soluble human CD47.
B9 yielded a Kd of 0.0267 nM, a koff of 1.14e-06 s⁻¹ and a kon of 42700 M⁻¹ s⁻¹.
In turn, B10 had a Kd of 0.0276 nM, a koff of 1.1e-06 s⁻¹ and a kon of 39800 M⁻¹ s⁻¹.
On the same counts, the results for B11 are 0.063 nM, 2.1e-06 s⁻¹ and 33300 M⁻¹ s⁻¹.
On the same counts, the results for B12 are 1.77 nM, 0.00011 s⁻¹ and 62100 M⁻¹ s⁻¹.
As to B13, binding was put at a Kd of 19 nM, the koff was 0.000522 s⁻¹ and the kon came to 27500 M⁻¹ s⁻¹.
Turning to B14, the Kd came to 0.0114 nM, the koff is 1.09e-06 s⁻¹ and the kon came to 87000 M⁻¹ s⁻¹.

Another experiment deals with Human CD33 (human, UniProt P20138 18-259). The experiment can be described thus: BLI (Octet) as in Example 1, His-tagged VHH, human CD33. On the technique in general: Biolayer interferometry detects binding as a change in optical thickness at a sensor tip.
Chain of Human CD33 (P20138 18-259 limits assumed): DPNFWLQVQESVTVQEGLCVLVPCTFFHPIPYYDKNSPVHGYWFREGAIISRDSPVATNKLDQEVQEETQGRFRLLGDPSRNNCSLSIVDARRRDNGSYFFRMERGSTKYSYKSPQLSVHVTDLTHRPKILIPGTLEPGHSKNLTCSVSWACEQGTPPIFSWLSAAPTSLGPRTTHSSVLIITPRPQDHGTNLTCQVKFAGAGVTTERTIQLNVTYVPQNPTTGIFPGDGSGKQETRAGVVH
Molecule B15 came in with a Kd of 0.511 nM, a koff of 0.0007 s⁻¹ and a kon of 1.1e+06 M⁻¹ s⁻¹.
For the molecule B16, the Kd turned out to be 0.995 nM, the koff is 0.0009 s⁻¹ and the kon was found to be 900000 M⁻¹ s⁻¹.
For B17 the same measures were 1.01 nM, 0.00081 s⁻¹ and 800000 M⁻¹ s⁻¹.
For B18, binding was characterised by a dissociation constant (Kd) of 0.409 nM, the koff turned out to be 0.0005 s⁻¹ and the kon came to 1e+06 M⁻¹ s⁻¹.
On the same counts, the results for B19 are 0.753 nM, 0.0006 s⁻¹ and 800000 M⁻¹ s⁻¹.
For B20, binding was put at a Kd of 0.136 nM, the koff is 0.000109 s⁻¹ and the kon worked out at 800000 M⁻¹ s⁻¹.
